Paper PMC7337490
Blank lines part the entries; values can stand above or below the binder they belong to.

Legend:
[1] = target: T1, GFP-MKLP2 WT (human), O95235; assay: SEC; 1 mg lysate of nocodazole-arrested HeLa cells on Superose 6 10/300 at 4°C; fractions Western blotted for MKLP2 and GFP; size from calibration standards; details: remark: other sources report otherwise
T1 chain: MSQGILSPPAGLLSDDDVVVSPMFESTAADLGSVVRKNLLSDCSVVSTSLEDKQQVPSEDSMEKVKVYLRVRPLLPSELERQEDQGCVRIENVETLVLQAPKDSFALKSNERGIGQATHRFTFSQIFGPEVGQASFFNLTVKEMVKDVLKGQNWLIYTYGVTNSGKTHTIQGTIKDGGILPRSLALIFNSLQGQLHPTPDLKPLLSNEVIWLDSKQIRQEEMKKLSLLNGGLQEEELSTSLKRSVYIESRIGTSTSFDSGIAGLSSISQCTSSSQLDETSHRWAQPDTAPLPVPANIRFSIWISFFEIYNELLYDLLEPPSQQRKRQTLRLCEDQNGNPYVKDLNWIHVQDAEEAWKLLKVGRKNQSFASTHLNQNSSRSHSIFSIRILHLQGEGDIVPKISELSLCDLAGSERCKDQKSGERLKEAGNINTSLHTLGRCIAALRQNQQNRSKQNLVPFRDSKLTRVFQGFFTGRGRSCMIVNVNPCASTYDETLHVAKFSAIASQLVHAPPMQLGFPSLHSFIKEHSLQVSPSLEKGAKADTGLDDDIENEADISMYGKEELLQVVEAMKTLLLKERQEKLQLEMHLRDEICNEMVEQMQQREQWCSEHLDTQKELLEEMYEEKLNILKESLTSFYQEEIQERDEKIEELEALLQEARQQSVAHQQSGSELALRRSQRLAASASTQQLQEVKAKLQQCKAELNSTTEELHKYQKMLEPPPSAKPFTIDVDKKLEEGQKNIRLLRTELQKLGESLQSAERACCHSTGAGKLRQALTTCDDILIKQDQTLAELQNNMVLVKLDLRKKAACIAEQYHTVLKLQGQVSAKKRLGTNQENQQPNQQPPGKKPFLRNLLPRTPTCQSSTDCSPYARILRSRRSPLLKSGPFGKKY

[2] = target: T2, MKLP2 (endogenous) (human (endogenous in HeLa)), O95235; assay: as above; details: remark: other sources report otherwise
T2 chain: T1 chain

stoichiometry N [1]: 2
B1: GFP-MKLP2 WT, O95235 1-890 (natural protein)
chain: T1 chain

stoichiometry N [2]: 2
B2: MKLP2 (endogenous), O95235 1-890 (natural protein)
chain: T1 chain
